Results from publication PMC3254782.
Like-named read-outs stand apart in the source and are kept apart here. Values belong to the substance of their own block, whether it stands above or below them.

Assays:
Assay in all cases: immunoprecipitation and Western blot
[1] = target: amyloid-β (Aβ) secreted by mature Tg2576 primary cortical neurons (human)
[2] = target: amyloid-β (Aβ) secreted by mature Tg2576 primary cortical neurons (human); remark: listed apart in the source
[3] = target: amyloid-β (Aβ) in brain tissue of Tg2576 mice (human)
[4] = target: amyloid-β (Aβ) secreted by 7PA2 cells

- stoichiometry N [1]: 2
- stoichiometry N [2]: 3
Substance: amyloid-β (Aβ) secreted by mature Tg2576 primary cortical neurons (peptide)

- stoichiometry N [3]: 2
Substance: amyloid-β (Aβ) in brain tissue of Tg2576 mice (peptide)

- stoichiometry N [4]: 2
Substance: amyloid-β (Aβ) secreted by 7PA2 cells (peptide)
